These results are taken from patent US20150140169.

First the molecules themselves.
T1: alpha-s1 casein from Bos taurus
T1 chain: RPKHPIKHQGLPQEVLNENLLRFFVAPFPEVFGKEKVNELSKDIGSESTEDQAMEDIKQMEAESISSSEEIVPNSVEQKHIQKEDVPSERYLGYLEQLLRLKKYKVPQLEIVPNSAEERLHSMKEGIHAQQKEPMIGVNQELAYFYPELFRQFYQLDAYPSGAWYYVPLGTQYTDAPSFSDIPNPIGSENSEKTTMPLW

B1: bovine chymosin B variant #1 (A51V) (protein)
chain: GEVASVPLTNYLDSQYFGKIYLGTPPQEFTVLFDTGSSDFWVPSIYCKSNVCKNHQRFDPRKSSTFQNLGKPLSIHYGTGSMQGILGYDTVTVSNIVDIQQTVGLSTQEPGDVFTYAEFDGILGMAYPSLASEYSIPVFDNMMNRHLVAQDLFSVYMDRNGQESMLTLGAIDPSYYTGSLHWVPVTVQQYWQFTVDSVTISGVVVACEGGCQAILDTGTSKLVGPSSDILNIQQAIGATQNQYGEFDIDCDNLSYMPTVVFEINGKMYPLTPSAYTSQDQGFCTSGFQSENHSQKWILGDVFIREYYSVFDRANNLVGLAKAI
B2: camel chymosin variant #147 (Q288H) (protein)
chain: GKVAREPLTSYLDSQYFGKIYIGTPPQEFTVVFDTGSSDLWVPSIYCKSNVCKNHHRFDPRKSSTFRNLGKPLSIHYGTGSMEGFLGYDTVTVSNIVDPNQTVGLSTEQPGEVFTYSEFDGILGLAYPSLASEYSVPVFDNMMDRHLVARDLFSVYMDRNGQGSMLTLGAIDPSYYTGSLHWVPVTLQQYWQFTVDSVTINGVAVACVGGCQAILDTGTSVLFGPSSDILKIQMAIGATENRYGEFDVNCGNLRSMPTVVFEINGRDYPLSPSAYTSKDQGFCTSGFHGDNNSELWILGDVFIREYYSVFDRANNRVGLAKAI
B3: camel chymosin variant #156 (D290S) (protein)
chain: B2 chain with H288Q, D290S
B4: camel chymosin variant #149 (Q288R) (protein)
chain: B2 chain with H288R
B5: camel chymosin variant #148 (Q288N) (protein)
chain: B2 chain with H288N
B6: camel chymosin variant #154 (D290M) (protein)
chain: B2 chain with H288Q, D290M
B7: camel chymosin variant #151 (D290A) (protein)
chain: B2 chain with H288Q, D290A
B8: camel chymosin variant #153 (D290L) (protein)
chain: B2 chain with H288Q, D290L
B9: camel chymosin variant #152 (D290G) (protein)
chain: B2 chain with H288Q, D290G
B10: Chymax M (recombinant camel chymosin) (protein)
chain: B2 chain with H288Q
B11: camel chymosin variant #150 (Q288S) (protein)
chain: B2 chain with H288S
B12: camel chymosin variant #155 (D290Q) (protein)
chain: B2 chain with H288Q, D290Q

Numbering of substitutions follows the chain as printed. In names and notes the source's numbering stands.

The data set concerns the target T1, alpha-s1 casein from Bos taurus.
With B1, the “hydrolysis of the first cut in alpha-s1-casein” value is “show a clear hydrolysis of the first cut in alpha-s1-casein, leading to a rapid formation of fragment alpha-s1-I casein”; the small, 6 hours, 11° C. was 0 Volume; the small, 24 hours, 11° C. turned out to be 0 Volume; the αs1-I CN, 6 hours, 11° C. was 1.88e+07 Volume. This protein registered a αs1-I CN, 24 hours, 11° C. of 2.36e+07 Volume; a αs1-I CN/αs1 CN, 6 hours, 11° C. of 0.9; a αs1-I CN/αs1 CN, 24 hours, 11° C. of 4.1; a αs1 CN, 6 hours, 11° C. of 2.05e+07 Volume. The protein also yielded a αs1 CN, 24 hours, 11° C. of 5.8e+06 Volume.
B2 returned a (αSN1-1)/(αSN1), 6 hours, 11° C. of 1.1; a (αSN1-1)/(αSN1), 24 hours, 11° C. of 3.3; a αs1-I CN, 6 hours, 11° C. of 2.28e+07 Volume; a αs1-I CN, 24 hours, 11° C. of 2.35e+07 Volume. For the same protein, the αs1 CN, 6 hours, 11° C. worked out at 2.15e+07 Volume and the αs1 CN, 24 hours, 11° C. came out at 7e+06 Volume.
On to B3, for which the (αSN1-1)/(αSN1), 6 hours, 11° C. was 0.5; the (αSN1-1)/(αSN1), 24 hours, 11° C. turned out to be 1.9; the αs1-I CN, 6 hours, 11° C. worked out at 1.7e+07 Volume; the αs1-I CN, 24 hours, 11° C. stood at 3.16e+07 Volume. Besides, the αs1 CN, 6 hours, 11° C. amounted to 3.15e+07 Volume and the αs1 CN, 24 hours, 11° C. stood at 1.71e+07 Volume.
Take B4: the (αSN1-1)/(αSN1), 6 hours, 11° C. worked out at 1; the (αSN1-1)/(αSN1), 24 hours, 11° C. worked out at 3.3; the αs1-I CN, 6 hours, 11° C. was found to be 2.16e+07 Volume; the αs1-I CN, 24 hours, 11° C. was 2.25e+07 Volume. Also, the αs1 CN, 6 hours, 11° C. came to 2.22e+07 Volume and the αs1 CN, 24 hours, 11° C. is 6.7e+06 Volume.
B5 yielded a (αSN1-1)/(αSN1), 6 hours, 11° C. of 0.6; a (αSN1-1)/(αSN1), 24 hours, 11° C. of 1.3; a αs1-I CN, 6 hours, 11° C. of 1.74e+07 Volume; a αs1-I CN, 24 hours, 11° C. of 2.62e+07 Volume. The protein further registered a αs1 CN, 6 hours, 11° C. of 2.83e+07 Volume and a αs1 CN, 24 hours, 11° C. of 2.03e+07 Volume.
As for B6, the (αSN1-1)/(αSN1), 6 hours, 11° C. turned out to be 1.1; the (αSN1-1)/(αSN1), 24 hours, 11° C. was 4.6; the αs1-I CN, 6 hours, 11° C. is 2.69e+07 Volume; the αs1-I CN, 24 hours, 11° C. is 3.77e+07 Volume. The same protein yielded a αs1 CN, 6 hours, 11° C. of 2.52e+07 Volume and a αs1 CN, 24 hours, 11° C. of 8.3e+06 Volume.
Consider B7, for which the (αSN1-1)/(αSN1), 6 hours, 11° C. was found to be 1; the (αSN1-1)/(αSN1), 24 hours, 11° C. turned out to be 2.5; the αs1-I CN, 6 hours, 11° C. came out at 2.29e+07 Volume; the αs1-I CN, 24 hours, 11° C. came out at 3.22e+07 Volume. The αs1 CN, 6 hours, 11° C. amounted to 2.31e+07 Volume and the αs1 CN, 24 hours, 11° C. was 1.31e+07 Volume.
On to B8, for which the (αSN1-1)/(αSN1), 6 hours, 11° C. stood at 1; the (αSN1-1)/(αSN1), 24 hours, 11° C. was 4.9; the αs1-I CN, 6 hours, 11° C. was 2.35e+07 Volume; the αs1-I CN, 24 hours, 11° C. amounted to 3.49e+07 Volume. The αs1 CN, 6 hours, 11° C. stood at 2.36e+07 Volume and the αs1 CN, 24 hours, 11° C. was 7.1e+06 Volume.
Protein B9 yielded a (αSN1-1)/(αSN1), 6 hours, 11° C. of 0.9; a (αSN1-1)/(αSN1), 24 hours, 11° C. of 3.4; a αs1-I CN, 6 hours, 11° C. of 2.18e+07 Volume; a αs1-I CN, 24 hours, 11° C. of 3.33e+07 Volume. Also, the αs1 CN, 6 hours, 11° C. came to 2.51e+07 Volume and the αs1 CN, 24 hours, 11° C. amounted to 9.7e+06 Volume.
As to B10, the (αSN1-1)/(αSN1), 6 hours, 11° C. (average) worked out at 0.5; the (αSN1-1)/(αSN1), 24 hours, 11° C. (average) worked out at 1.2; the “hydrolysis of the first cut in alpha-s1-casein” value was “shows a slow first cut in alpha-s1 casein”; the small, 6 hours, 11° C. turned out to be 0 Volume. The small, 16 hours, 30° C. came out at 9e+06 Volume; the small, 24 hours, 11° C. was determined as 1.1e+07 Volume; the αs1-I CN, 6 hours, 11° C. came out at 1.28e+07 Volume; the αs1-I CN, 6 hours, 11° C. (average) was determined as 1.81e+07 Volume. Also, the αs1-I CN, 16 hours, 30° C. amounted to 4.3e+06 Volume; the αs1-I CN, 24 hours, 11° C. was 1.62e+07 Volume; the αs1-I CN, 24 hours, 11° C. (average) worked out at 2.13e+07 Volume; the αs1-I CN/αs1 CN, 6 hours, 11° C. turned out to be 0.5. For the same protein, the αs1-I CN/αs1 CN, 24 hours, 11° C. turned out to be 1.3; the αs1 CN, 6 hours, 11° C. came out at 2.73e+07 Volume; the αs1 CN, 6 hours, 11° C. (average) was determined as 3.52e+07 Volume; the αs1 CN, 16 hours, 30° C. was 0 Volume. This protein gave a αs1 CN, 24 hours, 11° C. of 1.25e+07 Volume and a αs1 CN, 24 hours, 11° C. (average) of 1.73e+07 Volume.
B11: the (αSN1-1)/(αSN1), 6 hours, 11° C. came out at 0.6; the (αSN1-1)/(αSN1), 24 hours, 11° C. stood at 1.3; the αs1-I CN, 6 hours, 11° C. was found to be 1.83e+07 Volume; the αs1-I CN, 24 hours, 11° C. was found to be 2.31e+07 Volume. For the same protein, the αs1 CN, 6 hours, 11° C. is 2.87e+07 Volume and the αs1 CN, 24 hours, 11° C. amounted to 1.72e+07 Volume.
In turn, B12 returned a (αSN1-1)/(αSN1), 6 hours, 11° C. of 0.7; a (αSN1-1)/(αSN1), 24 hours, 11° C. of 2.5; a αs1-I CN, 6 hours, 11° C. of 2.03e+07 Volume; a αs1-I CN, 24 hours, 11° C. of 3.36e+07 Volume. The αs1 CN, 6 hours, 11° C. stood at 3.02e+07 Volume and the αs1 CN, 24 hours, 11° C. came out at 1.35e+07 Volume.
